Results from publication PMC6166713.

Key:
Assay in all cases: BLI; Octet Red; GST-WASP variants loaded on anti-GST sensors (10 μg/ml), dipped into a dilution range of Cdc42·GMPPNP; 50 mM Tris-HCl pH 7.5, 150 mM NaCl, 1 mM MgCl2, 0.02% Tween 20, 0.1% BSA, 0.05% sodium azide, 25 °C; GST-alone sensors subtracted
GST-WASP(201–321) K230A = GST-WASP(201–321) K230A (UniProt P42768)
[1] = target: GST-WASP(201–321) K230A/K231A (UniProt P42768)
[2] = target: GST-WASP(201–321) K231A/K232A (UniProt P42768)
GST-WASP(201–321) K231A = GST-WASP(201–321) K231A (UniProt P42768)
[3] = target: GST-WASP(201–321) K225A/K226A (UniProt P42768)
[4] = target: GST-WASP(201–321) K226A/R227A (UniProt P42768)
[5] = target: GST-WASP(201–321) K230A/K232A (UniProt P42768)
[6] = target: GST-WASP(201–321) K225A/R227A (UniProt P42768)
[7] = target: GST-WASP(201–321) K225A/K226A/R227A (UniProt P42768)
GST-WASP(201–321) K232A = GST-WASP(201–321) K232A (UniProt P42768)
GST-WASP(201–321) R227A = GST-WASP(201–321) R227A (UniProt P42768)

In the case of “Cdc42 Δ7 Q61L (from UniProt P60953 1-191) (natural protein)”, the Kd (GST-WASP(201–321) K230A) is reported as 106 nM, the koff (GST-WASP(201–321) K230A) is reported as 0.0498 s⁻¹ and the kon (GST-WASP(201–321) K230A) is reported as 477000 M⁻¹ s⁻¹. The Kd [1] was 162 nM, the koff [1] was 0.0684 s⁻¹ and the kon [1] was 422000 M⁻¹ s⁻¹. For the same substance, the Kd [2] was 178 nM, the koff [2] was 0.0639 s⁻¹ and the kon [2] was 368000 M⁻¹ s⁻¹. The Kd (GST-WASP(201–321) K231A) was 89.6 nM, the koff (GST-WASP(201–321) K231A) was 0.0438 s⁻¹ and the kon (GST-WASP(201–321) K231A) was 509000 M⁻¹ s⁻¹. The Kd [3] was 59.6 nM, the koff [3] was 0.0295 s⁻¹ and the kon [3] was 490000 M⁻¹ s⁻¹. The Kd [4] was 74.8 nM, the koff [4] was 0.0372 s⁻¹ and the kon [4] was 497000 M⁻¹ s⁻¹. It also gave a Kd [5] of 142 nM, a koff [5] of 0.067 s⁻¹ and a kon [5] of 484000 M⁻¹ s⁻¹. For the same substance, the Kd [6] was 81.5 nM, the koff [6] was 0.0371 s⁻¹ and the kon [6] was 456000 M⁻¹ s⁻¹. It also gave a Kd [7] of 79.2 nM, a koff [7] of 0.042 s⁻¹ and a kon [7] of 540000 M⁻¹ s⁻¹. It also gave a Kd (GST-WASP(201–321) K232A) of 134 nM, a koff (GST-WASP(201–321) K232A) of 0.0546 s⁻¹ and a kon (GST-WASP(201–321) K232A) of 407000 M⁻¹ s⁻¹. The Kd (GST-WASP(201–321) R227A) was 49 nM, the koff (GST-WASP(201–321) R227A) was 0.0281 s⁻¹ and the kon (GST-WASP(201–321) R227A) was 630000 M⁻¹ s⁻¹.
